Data: paper PMC7744550, “Structurally distinct telomere-binding proteins in Ustilago maydis execute non-overlapping functions in telomere replication, recombination, and protection”

How the values were obtained:
[1] = target: T1, Tay1N274-FG (Ustilago maydis) (UniProt A0A0D1CTG7); test: EMSA; conditions: 25 mM HEPES-KOH pH 7.5, 5% glycerol, 3 mM MgCl2, 0.1 mM EDTA, 1 mM DTT, 0.5 µg/µl BSA, 1-10 nM 32P probe, 22 °C 15 min; 6% native PAGE in 0.2x TBE
T1 sequence: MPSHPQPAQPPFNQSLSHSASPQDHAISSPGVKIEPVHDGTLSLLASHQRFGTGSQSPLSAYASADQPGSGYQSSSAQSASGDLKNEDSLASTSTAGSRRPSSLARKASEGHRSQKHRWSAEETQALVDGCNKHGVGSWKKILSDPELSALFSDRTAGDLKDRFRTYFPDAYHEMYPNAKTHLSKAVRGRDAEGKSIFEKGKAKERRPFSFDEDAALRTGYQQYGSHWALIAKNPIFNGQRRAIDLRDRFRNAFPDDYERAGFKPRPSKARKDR

[2] = target: T2, Trf2∆N-FG3 (Ustilago maydis) (UniProt A0A0D1E1Z3); test: EMSA; conditions: 25 mM HEPES-KOH pH 7.5, 5% glycerol, 3 mM MgCl2, 0.1 mM EDTA, 1 mM DTT, 0.5 µg/µl BSA, 1-10 nM 32P probe, 22 °C 15 min; 6% native PAGE in 0.2x TBE
T2 sequence: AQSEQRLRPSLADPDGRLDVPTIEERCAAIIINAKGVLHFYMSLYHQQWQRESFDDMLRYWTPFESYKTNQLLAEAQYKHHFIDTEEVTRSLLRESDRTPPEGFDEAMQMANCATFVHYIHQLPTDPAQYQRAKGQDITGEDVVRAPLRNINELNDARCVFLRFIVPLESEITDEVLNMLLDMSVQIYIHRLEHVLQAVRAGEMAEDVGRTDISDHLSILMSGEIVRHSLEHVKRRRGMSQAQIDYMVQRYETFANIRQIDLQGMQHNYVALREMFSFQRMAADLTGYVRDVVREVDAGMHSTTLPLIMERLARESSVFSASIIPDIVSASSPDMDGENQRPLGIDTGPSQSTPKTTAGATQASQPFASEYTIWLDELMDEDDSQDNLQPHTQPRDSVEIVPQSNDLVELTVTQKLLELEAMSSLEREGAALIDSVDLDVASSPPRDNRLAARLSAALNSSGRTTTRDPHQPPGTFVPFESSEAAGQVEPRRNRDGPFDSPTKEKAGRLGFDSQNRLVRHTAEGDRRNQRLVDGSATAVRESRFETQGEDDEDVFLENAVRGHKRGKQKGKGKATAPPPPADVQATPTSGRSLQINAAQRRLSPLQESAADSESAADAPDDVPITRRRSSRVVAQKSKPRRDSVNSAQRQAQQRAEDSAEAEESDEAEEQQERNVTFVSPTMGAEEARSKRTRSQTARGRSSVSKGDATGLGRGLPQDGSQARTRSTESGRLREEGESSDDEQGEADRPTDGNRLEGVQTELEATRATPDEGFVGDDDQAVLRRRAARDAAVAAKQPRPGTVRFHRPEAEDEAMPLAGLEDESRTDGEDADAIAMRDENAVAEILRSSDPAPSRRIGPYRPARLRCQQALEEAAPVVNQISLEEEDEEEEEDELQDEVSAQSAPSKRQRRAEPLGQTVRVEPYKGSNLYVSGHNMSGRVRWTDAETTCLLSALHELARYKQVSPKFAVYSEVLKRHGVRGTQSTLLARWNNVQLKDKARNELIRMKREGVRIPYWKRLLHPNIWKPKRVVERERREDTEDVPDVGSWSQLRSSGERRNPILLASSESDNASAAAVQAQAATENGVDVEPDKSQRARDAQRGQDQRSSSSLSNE

[3] = target: T3, Tay1-FG (Ustilago maydis) (UniProt A0A0D1CTG7); test: EMSA; conditions: 25 mM HEPES-KOH pH 7.5, 5% glycerol, 3 mM MgCl2, 0.1 mM EDTA, 1 mM DTT, 0.5 µg/µl BSA, 1-10 nM 32P probe, 22 °C 15 min; 6% native PAGE in 0.2x TBE
T3 sequence: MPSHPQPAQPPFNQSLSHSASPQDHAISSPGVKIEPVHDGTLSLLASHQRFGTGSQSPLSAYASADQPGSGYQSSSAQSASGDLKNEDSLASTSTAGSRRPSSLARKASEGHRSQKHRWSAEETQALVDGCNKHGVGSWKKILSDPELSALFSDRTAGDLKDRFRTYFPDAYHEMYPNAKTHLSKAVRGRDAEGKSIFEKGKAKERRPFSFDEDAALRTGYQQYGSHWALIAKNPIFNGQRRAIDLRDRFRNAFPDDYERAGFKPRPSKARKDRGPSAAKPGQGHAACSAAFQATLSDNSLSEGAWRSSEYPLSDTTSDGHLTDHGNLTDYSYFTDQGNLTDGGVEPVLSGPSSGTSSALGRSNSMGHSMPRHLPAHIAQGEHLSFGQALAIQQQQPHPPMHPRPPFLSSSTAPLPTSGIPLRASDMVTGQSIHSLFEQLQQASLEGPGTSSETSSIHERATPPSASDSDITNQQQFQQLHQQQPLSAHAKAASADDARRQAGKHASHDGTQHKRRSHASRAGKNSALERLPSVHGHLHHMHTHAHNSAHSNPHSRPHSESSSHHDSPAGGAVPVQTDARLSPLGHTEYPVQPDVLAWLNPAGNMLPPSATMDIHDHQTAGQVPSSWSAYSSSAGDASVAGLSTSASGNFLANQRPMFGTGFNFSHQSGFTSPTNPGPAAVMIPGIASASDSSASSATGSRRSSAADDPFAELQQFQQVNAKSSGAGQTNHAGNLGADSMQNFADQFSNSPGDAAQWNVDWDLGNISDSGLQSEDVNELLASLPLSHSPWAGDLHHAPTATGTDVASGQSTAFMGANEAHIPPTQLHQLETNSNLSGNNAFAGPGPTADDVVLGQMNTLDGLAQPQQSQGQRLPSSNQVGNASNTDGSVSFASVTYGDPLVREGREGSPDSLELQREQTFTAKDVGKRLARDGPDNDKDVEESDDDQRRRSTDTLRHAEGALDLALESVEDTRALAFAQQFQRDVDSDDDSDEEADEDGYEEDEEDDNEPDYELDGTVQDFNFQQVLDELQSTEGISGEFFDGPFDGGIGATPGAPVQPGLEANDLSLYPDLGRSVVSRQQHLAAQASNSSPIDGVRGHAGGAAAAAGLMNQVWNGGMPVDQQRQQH

Tay1-FG = Tay1-FG (Ustilago maydis, UniProt A0A0D1CTG7 1-1127); test: competition; unlabeled competitor; 25 mM HEPES-KOH pH 7.5, 5% glycerol, 3 mM MgCl2, 0.1 mM EDTA, 1 mM DTT, 0.5 µg/µl BSA, 1-10 nM 32P probe, 22 °C 15 min; 6% native PAGE in 0.2x TBE; conditions: protein: recombinant; tags: C-terminal FLAG (His-SUMO cleaved by ULP1); blunt
Trf2∆N-FG3 = Trf2∆N-FG3 (Ustilago maydis, UniProt A0A0D1E1Z3 416-1528); test: EMSA; 25 mM HEPES-KOH pH 7.5, 5% glycerol, 3 mM MgCl2, 0.1 mM EDTA, 1 mM DTT, 0.5 µg/µl BSA, 1-10 nM 32P probe, 22 °C 15 min; 6% native PAGE in 0.2x TBE; conditions: protein: recombinant; tags: C-terminal FG3 (His-SUMO cleaved by ULP1)

Molecule: TTAGGGTTAGGGTTAGGGTTAGGG (double strand) [TTAGGG4 ds]
- Kd [1]: 130 nM
- Kd [2]: 20 nM
- Kd [3]: 27 nM

Molecule: Tay1-FG (natural protein)
- helicase activity of Blm (12.5 nM) on a non-telomeric DNA substrate with Tay1 at 0, 10, 30 and 90 nM (Blm-FG (Ustilago maydis)): 2.5 fold

B1: CgTEL (dsDNA)
DNA 1: TGGGGTCTGGGTGCTG
DNA 2: CAGCACCCAGACCCCA
- binding result (Tay1-FG): no binding

Molecule: TTAGGGTTAGGGTTAGGGTTAGGG (ssDNA) [TTAGGG4 G-strand]
- binding result (Trf2∆N-FG3): no binding
